Experimental data: US20140287419A1, “Compositions Having Dicamba Decarboxylase Activity and Methods of Use” (priority 2013, published 2014)
Residue numbers refer to the chain shown, from its start.

B1: 118 (protein)
chain: MAKKPRIDMHSHFFPRISEQEAAKFDANHAPWLQVSAKGDTGSIMMGKNNFQPVYQALWDPAFRIEEMDAQGVDVQVTCATPVMFGYTWEANKAAQWAERMNDFALEFAAHNPQRIKVLAQVPLQDLDLACKEASRAVAAGHLGIQIGNHLGDKDLDDATLEAFLTHCANEDIPILVHGTDMMGGQRMKKWGLPWLVALAAEVQLAILSLILSGAFERIPKSLKICFSHGGGSFAFLLGLVDEAWRHVDIVREDCPRPPSEYVDRFFVDSVGNPGALELLVSVMGEDRVMLGSDYPHTTGEQKIGGLVLSSNLGESAKDKIISGNASKFFNINV
modifications: Dicamba decarboxylase variant clone DC.5.033
B2: 119 (protein)
chain: B1 chain with T180W, P194Y, L199H, A200H, L237T, L240W, H297L
modifications: Dicamba decarboxylase variant cloneDC.5.034
B3: 120 (protein)
chain: MAIIDCHGHYTTTPKGVETYRNAQKAAVAKDPSFKYEKGQVVVSDDEIRESIENNQLKMQRERGTDLTIFSPRSTAGGHHIGNEYTSQFWTEHQNDLIRRVCDLFPKNFAPVAQLPQSPGVDPAKSVPEIVRTVEQMGFIGINLNPDPSGGYWKDTSLADRAFYPIYEKMVEYDIPAMIHPRNACNDCFHTTGSHALGADTTGFQQLIMSDVFKDFPSLKIIIPHGGGAVPYHWGRFRGLMQDQGYAPLEESALKNIYFDTCVYHQRGIDLLLDIVPTQNILFASEMIGAVRGIDAETGHNFDDTKRYIDNNTALNAEEKAMIFEGNARRVFSRLKTD
modifications: Dicamba decarboxylase variant clone DC.12.002
B4: 100 (protein, listed as Reinekea blandensis)
chain: MAIIDCHGHYTTTPKGVEDYRNAQKAAVAKDPSFKGEKGQVVVSDDEIRESIENNQLKMQRERGTDLTIFSPRASWMGHHIGNEYTSQFWTEHQNDLIRRVCDLFPKNFAPVAQLPQSPGVDPAKSVPEIVRTVEQMGFIGINLNPDPSGGYWKDTSLADRAFYPIYEKMVEYDIPAMIHVSAACNDCFHTTGSHYLGADTTGFQQLIMSDVFKDFPSLKIIIPHGGGAVPYHWGRFRGLMQDQGYAPLEESALKNIYFDTCVYHQRGIDLLLDIVPTQNILFASEMIGAVRGIDPETGHNFDDTKRYIDNNTALNAEEKAMIFEGNARRVFSRLKTD
B5: 122 (protein)
chain: B3 chain with T19D, Y36G, E286D, A296P
modifications: Dicamba decarboxylase variant clone DC.12.103
B6: 121 (protein)
chain: MAIIDCHGHYTTTPKGVEDYRNAQKAAVAKDPSFKGEKGQVVVSDDEIRESIENNQLKMQRERGTDLTIFSPRWDAGGHHIGNEYTSQFWTEHQNDLIRRVCDLFPKNFAPVAQLPQSPGVDPAKSVPEIVRTVEQMGFIGINLNPDPSGGYWKDTSLADRAFYPIYEKMVEYDIPAMIHPRLACNACFHTGLSVGLGADTTGFQQLIMSDVFKDFPSLKIIIPHGGGAVPYHWGRFRGLMQDQGYAPLEESALKNIYFDTCVYHQRGIDLLLDIVPTQNILFASEMIGAVRGIDPETGHNFDDTKRYIDNNTALNAEEKAMIFEGNARRVFSRLKTD
modifications: Dicamba decarboxylase variant clone DC.12.014
B7: 117 (protein)
chain: MAKKPRIDMHSHFFPRISEQEAAKFDANHAPWLQVSAKGDTGSIMMGKNNFRPVYQALWDPAFRIEEMDAQGVDVQVTCATPVMFGYTWEANKAAQWAERMNDFALEFAAHNPQRIKVLAQVPLQDLDLACKEASRAVAAGHLGIQIGNHLGDKDLDDATLEAFLTHCANEDIPILVHPWDMMGGQRMKKWMLPVLVAAPAEVQLAILSLILSGAFERIPKSLKICFAGGGGSFAFLLGIVDLAWRHRDIVREDCPRPPSEYVDRFFVDSLVFNPGALELLVSVMGEDRVMLGSDYPFPTGEQKIGGLVLSSNLGESAKDKIISGNASKFFNINV
modifications: Dicamba decarboxylase variant clone DC.5.008
B8: 111 (protein)
chain: MAQGKVALEEHFAIPETLQDSMGFVPGDYWKELMHRLLDIQDTRLKLMDAHGIETMILSLNAPAVQAIPDRRKAIEIARRANDVLAEECAKRPDRFLAFAALPLQDPDAATEELQRCVNDLGFVGALVNGFSQEGDGQTPLYYDLPQYRPFWGEVEKLDVPFYLHPRNPLPQDSRIYDGHPWLLGPTWAFAQETAVHALRLMASGLFDEHPRLNIILGHMGEGLPYMMWRIDHRMAWIKLPPRYPAKRRFMDYFNENFHITTSGNFRTQTLIDAILEIGADRILFSTDWPFENIDHASDWFNATSIAEADRVKIGRTNARRLFKLDGA
modifications: Dicamba decarboxylase variant clone DC.4.112
B9: 110 (protein)
chain: B8 chain with I238V
modifications: Dicamba decarboxylase variant clone DC.4.111
B10: 112 (protein)
chain: B8 chain with M22A, M34V, M235V, I238V
modifications: Dicamba decarboxylase variant clone DC.4.113
B11: 113 (protein)
chain: B8 chain with M22A, W30L, M34F, M235V, I238V
modifications: Dicamba decarboxylase variant clone DC.4.114
B12: 114 (protein)
chain: B8 chain with M22A, F24A, M34Q, M235V, I238V
modifications: Dicamba decarboxylase variant clone DC.4.116
B13: 115 (protein)
chain: MAQGKVALEEHFAIPDTLTTYTTSGDYEKELKHRLLDIQDTRLKLMDAHGIETMILSLNAPGVQAIPDRRKAIEIARRANDVLAEECAKRPDRFLAFAALPLQDPDAATEELQRCVNDLGFVGALVNGFSQEGDGQTPLYYDLPQYRPFWGEVEKLDVPFYLHPRNPLPQDSRIYDGHPWLLGPTWAFAQETAVHALRLMASGLFDEHPRLNIILGHMGEGLPYMMWRIDHRNAWVKTPPRYPAKRRFMDYFNENFHITTSGNFRTQTLIDAILEIGADRILFSTDWPFENIDHASDWFNATSIAEADRVKIGRTNARRLFKLDGA
modifications: Dicamba decarboxylase variant clone DC.4.161
B14: 116 (protein)
chain: MAQGKVALEEHFAIPETLQDAAGFVPGDYWKELQHRLLDIQDRRVRLMDEHGIETMILSLNAPAVQAIADSTRANETARRANDFLAEQVAKQPTRFRGFAALPMQDPELAARELERCVKELGFVGALVNGFSQDNRSAVPLYYDMAQYWPFWETVQALDVPFYLHPRNPLPSDARIYDGHAWLLGPTWAFGQETAVHALRLMGSGLFDKYPALKIILGHMGEGLPYSMWRIDHRNAWIKTTPKYPAKRKIVDYFNENFYLTTSGNFRTQTLIDAILEIGADRILFSTDWPFENIDHAADWFENTSISEADRKKIGWGNAQNLFKLNR
modifications: Dicamba decarboxylase variant clone DC.30.007

Test: Dicamba decarboxylation activity of computationally designed protein variants
Conditions: Table 4, variants designed to introduce activity

Question: Which “Dicamba Decarboxylation activity” value does the source give for B1 here?
Answer: Yes

Question: With B2 as the molecule, how does the “Dicamba Decarboxylation activity” value read?
Answer: Yes

Question: For B3, which “Dicamba Decarboxylation activity” value is on record?
Answer: Yes

Question: For B4, which “Dicamba Decarboxylation activity” value is on record?
Answer: No

Question: With B5 as the molecule, how does the “Dicamba Decarboxylation activity” value read?
Answer: Yes

Question: With B6 as the molecule, how does the “Dicamba Decarboxylation activity” value read?
Answer: Yes

Question: With B7 as the molecule, how does the “Dicamba Decarboxylation activity” value read?
Answer: Yes

Same assay, conditions: Table 5, designed variants with improved activity

Question: With B8 as the molecule, how does the “Dicamba Decarboxylation activity” value read?
Answer: Yes

Question: With B9 as the molecule, how does the “Dicamba Decarboxylation activity” value read?
Answer: Yes

Question: With B10 as the molecule, how does the “Dicamba Decarboxylation activity” value read?
Answer: Yes

Question: With B11 as the molecule, how does the “Dicamba Decarboxylation activity” value read?
Answer: Yes

Question: Which “Dicamba Decarboxylation activity” value does the source give for B12 here?
Answer: Yes

Question: For B13, which “Dicamba Decarboxylation activity” value is on record?
Answer: Yes

Question: With B14 as the molecule, how does the “Dicamba Decarboxylation activity” value read?
Answer: Yes

Same assay, conditions: parent SEQ ID NO:1 or SEQ ID NO:41 listed as 100

Question: With B8 as the molecule, how does the “Percent Activity Improvement Over Parent (%)” value read?
Answer: 237%

Question: With B9 as the molecule, how does the “Percent Activity Improvement Over Parent (%)” value read?
Answer: 277%

Question: With B10 as the molecule, how does the “Percent Activity Improvement Over Parent (%)” value read?
Answer: 219%

Question: With B11 as the molecule, how does the “Percent Activity Improvement Over Parent (%)” value read?
Answer: 224%

Question: With B12 as the molecule, how does the “Percent Activity Improvement Over Parent (%)” value read?
Answer: 221%

Question: Which “Percent Activity Improvement Over Parent (%)” value does the source give for B13 here?
Answer: 202%

Question: With B14 as the molecule, how does the “Percent Activity Improvement Over Parent (%)” value read?
Answer: 220%

Test: 14C assay with IPTG-induced recombinant E. coli cells (14CO2 capture from [14C]-carboxyl-labeled dicamba)
Conditions: IPTG-induced recombinant E. coli cells; [14C]-carboxyl-labeled dicamba; 14CO2 capture

Question: For B4, which “Dicamba Decarboxylase Activity” value is on record?
Answer: No

Same assay, conditions: dicamba decarboxylation activity of the protein of the given SEQ ID NO

Question: For B1, which “Enzymatic Detection level” value is on record?
Answer: High

Question: For B2, which “Enzymatic Detection level” value is on record?
Answer: High

Question: Which “Enzymatic Detection level” value does the source give for B8 here?
Answer: High

Question: Which “Enzymatic Detection level” value does the source give for B9 here?
Answer: High

Question: With B10 as the molecule, how does the “Enzymatic Detection level” value read?
Answer: High

Question: With B11 as the molecule, how does the “Enzymatic Detection level” value read?
Answer: High

Question: Which “Enzymatic Detection level” value does the source give for B12 here?
Answer: High

Question: Which “Enzymatic Detection level” value does the source give for B3 here?
Answer: High

Question: For B4, which “Enzymatic Detection level” value is on record?
Answer: No

Question: Which “Enzymatic Detection level” value does the source give for B5 here?
Answer: High

Question: With B13 as the molecule, how does the “Enzymatic Detection level” value read?
Answer: High

Question: Which “Enzymatic Detection level” value does the source give for B6 here?
Answer: High

Question: With B7 as the molecule, how does the “Enzymatic Detection level” value read?
Answer: High

Question: With B14 as the molecule, how does the “Enzymatic Detection level” value read?
Answer: High
